Our source for the Kd values is US20090018093.

Where two headings read alike, the source gives them in different places.

The series has as its system Immunoglobulin E (IgE) (Homo sapiens), P01854-1. The series can be described thus: filter.
Where [1] appears, read: 2'-OMe/2'-deoxy mix, 3:21 pair changed, DPBS Mg/Ca, 0.1 mg/mL BSA, RT.

Sequence of Immunoglobulin E (IgE) (Homo sapiens), P01854-1 (P01854 other isoform, or with tags, fused parts or gaps): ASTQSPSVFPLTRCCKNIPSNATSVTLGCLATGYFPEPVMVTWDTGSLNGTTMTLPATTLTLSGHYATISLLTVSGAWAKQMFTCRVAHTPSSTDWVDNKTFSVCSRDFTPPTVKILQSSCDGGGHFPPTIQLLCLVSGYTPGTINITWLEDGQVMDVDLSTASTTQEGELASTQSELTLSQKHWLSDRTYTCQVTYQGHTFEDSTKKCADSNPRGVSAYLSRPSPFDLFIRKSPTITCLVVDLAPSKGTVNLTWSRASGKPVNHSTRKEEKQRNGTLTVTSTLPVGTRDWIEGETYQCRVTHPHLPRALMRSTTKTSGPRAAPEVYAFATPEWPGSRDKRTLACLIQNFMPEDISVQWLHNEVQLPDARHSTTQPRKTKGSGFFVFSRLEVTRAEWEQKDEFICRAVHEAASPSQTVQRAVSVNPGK

For AGCCUGGGGACCCAUGGGGGGCU [ARC3262], the dissociation constant (Kd) (commonly the concentration at which binding is half-saturated) (ARC1666 pattern with 2'-OMe G8, 3' idT [dI (written G) at 16,18,20, 2'-OMe 1-5,7,8,10-15,17,22,23, deoxy 6,9,16,18-21, PS 8/9,15/16,16/17,18/19,20/21, 3' inverted dT left out], dPBS Ca/Mg + BSA, RT) was determined as 0.16 nM. On to AGCCUGGGGACCCAUGGGGGGCU [ARC3263], for which the Kd (ARC1666 pattern with 2'-OMe G9, 3' idT [dI (written G) at 16,18,20, 2'-OMe 1-5,7,9,10-15,17,22,23, deoxy 6,8,16,18-21, PS 8/9,15/16,16/17,18/19,20/21, 3' inverted dT left out], dPBS Ca/Mg + BSA, RT) worked out at 0.026 nM. Turning to AGCCUGGGGACCCAUGGGGGGCU [ARC3266], the Kd (ARC1666 pattern with 2'-OMe G8 and 2'-OMe I16, 3' idT [inosine (written G) at 16 (2'-OMe I),18,20 (dI), 2'-OMe 1-5,7,8,10-17,22,23, deoxy 6,9,18-21, PS 8/9,15/16,16/17,18/19,20/21, 3' inverted dT left out], dPBS Ca/Mg + BSA, RT) is 1.3 nM.

AGCCUGGGGACCCAUGGGGGGCU [ARC3270]: the Kd (ARC1666 pattern with 2'-OMe G9 and extra PS after G21, C22 and U23, 3' idT [dI (written G) at 16,18,20, 2'-OMe 1-5,7,9,10-15,17,22,23, deoxy 6,8,16,18-21, PS 8/9,15/16,16/17,18/19,20/21,21/22,22/23,23/idT, 3' inverted dT left out], dPBS Ca/Mg + BSA, RT) was determined as 0.04 nM.

As to AGCCUGGGNGACCCAUNNNGNNGNNGCUN [ARC3264], under “ARC1666 chemistry with 2'-OMe I16, 3' idT, DPBS Mg/Ca, BSA, RT”, the Kd amounted to 0.36 nM.

Turning to AGCCUGGGNGACCCAUNNNGNNGNNGCUN [ARC3265], where the note is “ARC1666 chemistry with 2'-OMe G8,G9, 3' idT, DPBS Mg/Ca, BSA, RT”, the Kd was 0.29 nM. With AGCCUGGGNGACCCAUNNNGNNGNNGCUN [ARC3267], the Kd (ARC1666 chemistry with 2'-OMe G9,I16, 3' idT, DPBS Mg/Ca, BSA, RT) came out at 0.2 nM. As to AGCCUGGGNGACCCAUNNNGNNGNNGCUN [ARC3268], the Kd (ARC1666 chemistry with 2'-OMe G8,G9,I16, 3' idT, DPBS Mg/Ca, BSA, RT) was determined as 0.6 nM. Take “AGCCUGGGNGACCCAUNNNGNNGNNGCUNN [ARC2369]”: the Kd (ARC1666 pattern, 3'-NH-PEG20K, no idT, dPBS Ca/Mg + BSA, RT) amounted to 0.03 nM. “AGCCUGGGNGACCCAUNNNGNNGNNGNCNUN [ARC2341]”: the Kd (ARC1666 chemistry + PS 21-22,22-23, 3' idT, DPBS Mg/Ca, BSA, RT) worked out at 0.05 nM. “AGCCUGGGNGACCCAUNNNGNNGNNGNCNUNN [ARC2342]”: the Kd (ARC1666 chemistry + PS 21-22,22-23,23-idT, 3' idT, second independent measurement 0.04 nM) was 0.19 nM. Consider “AGCCUGGGNGACCCAUNNNGNNGNNGNCNUNN [ARC3269]”, for which, for the setting “ARC2342 chemistry with 2'-OMe G8, 3' idT, DPBS Mg/Ca, BSA, RT”, the Kd was determined as 0.52 nM. Take “AGCCUGGGNGACCCAUNNNGNNGNNGNCNUNN [ARC3271]”: the Kd (ARC2342 chemistry with 2'-OMe I16, 3' idT, DPBS Mg/Ca, BSA, RT) is 0.23 nM. In turn, “AGCCUGGGNGACCCAUNNNGNNGNNGNCNUNN [ARC3272]” came in with a Kd (ARC2342 chemistry with 2'-OMe G8,G9, 3' idT, DPBS Mg/Ca, BSA, RT) of 0.12 nM. Under “ARC2342 chemistry with 2'-OMe G8,I16, 3' idT, DPBS Mg/Ca, BSA, RT”, “AGCCUGGGNGACCCAUNNNGNNGNNGNCNUNN [ARC3273]” showed a Kd of 0.86 nM.

Turning to “AGCCUGGGNGACCCAUNNNGNNGNNGNCNUNN [ARC3274]”, the Kd (ARC2342 chemistry with 2'-OMe G9,I16, 3' idT, DPBS Mg/Ca, BSA, RT) worked out at 0.12 nM. In the case of “AGCCUGGGNGACCCAUNNNGNNGNNGNCNUNN [ARC3275]”, the Kd (ARC2342 chemistry with 2'-OMe G8,G9,I16, 3' idT, DPBS Mg/Ca, BSA, RT) amounted to 0.67 nM. Regarding “AGCCUGGGNGACCCAUNNNGNNGNNGNCUN [ARC2340]”, the Kd (ARC1666 pattern plus PS between G21 and C22, 3' idT, dPBS Ca/Mg + BSA, RT) is 0.08 nM.

As for “AGCCUGGGNGACCCAUNNNGNNGNNNGCUN [ARC2983]”, the Kd (ARC1666 chemistry + PS 19-20, 3' idT, DPBS Mg/Ca, BSA, RT) came out at 0.02 nM. As for “AGCCUGGGNGACCCAUNNNGNNNGNNGCUN [ARC2982]”, the Kd (ARC1666 chemistry + PS 17-18, 3' idT, DPBS Mg/Ca, BSA, RT) was found to be 0.03 nM. For the sequence “AGCCUGGGNGACCCNAUNNNGNNGNNGCUN [ARC2980]”, where the note is “ARC1666 chemistry + PS 13-14, 3' idT, DPBS Mg/Ca, BSA, RT”, the Kd amounted to 0.04 nM. Take “AGCCUGGGNGACCNCAUNNNGNNGNNGCUN [ARC2979]”: the Kd (ARC1666 chemistry + PS 12-13, 3' idT, DPBS Mg/Ca, BSA, RT) is 0.05 nM. For the sequence “AGCCUGGGNGACNCCAUNNNGNNGNNGCUN [ARC2978]”, the Kd (ARC1666 chemistry + PS 11-12, 3' idT, DPBS Mg/Ca, BSA, RT) is 0.05 nM. Take “AGCCUGGGNGANCCCAUNNNGNNGNNGCUN [ARC2977]”: for the setting “ARC1666 chemistry + PS 10-11, 3' idT, DPBS Mg/Ca, BSA, RT”, the Kd stood at 0.05 nM. As for “AGCCUGGGNGNACCCAUNNNGNNGNNGCUN [ARC2976]”, for the setting “ARC1666 pattern plus PS between G9 and A10, 3' idT, dPBS Ca/Mg + BSA, RT”, the Kd was determined as 0.3 nM.

On to “AGCCUGGNGNGACCCAUNNNGNNGNNGCUN [ARC2975]”, for which the Kd (ARC1666 chemistry + PS 7-8, 3' idT, DPBS Mg/Ca, BSA, RT) is 0.04 nM. With “AGCCUGNGGNGACCCAUNNNGNNGNNGCUN [ARC2974]”, where the note is “ARC1666 chemistry + PS 6-7, 3' idT, DPBS Mg/Ca, BSA, RT”, the Kd was 0.07 nM.

For the sequence “AGCCUNGGGNGACCCAUNNNGNNGNNGCUN [ARC2973]”, the Kd (ARC1666 chemistry + PS 5-6, 3' idT, DPBS Mg/Ca, BSA, RT) came out at 0.05 nM. On to “AGCNCUGGGNGACCCAUNNNGNNGNNGCUN [ARC2971]”, for which, where the note is “ARC1666 chemistry + PS 3-4, 3' idT, DPBS Mg/Ca, BSA, RT”, the Kd was found to be 0.06 nM.

Turning to AGGCUGGGGACCCAUGGGGGCCU [ARC1244], the Kd (dRmY, dPBS Ca/Mg + BSA, RT) is 450 nM. Turning to AGGCUGGGGACCCAUGGGGGCCU [ARC1245], under setting [1], the Kd was 198 nM.

Turning to “AGNCCUGGGNGACCCAUNNNGNNGNNGCUN [ARC2970]”, the Kd (ARC1666 chemistry + PS 2-3, 3' idT, DPBS Mg/Ca, BSA, RT) is 0.04 nM.

As for AGUAGCCUGGGGACCCAUGGGGGGCUACU [ARC3276], under “mAmGmUmAmGmCmCmUdGmGdG-s-dGmAmCmCmCmAmU-s-dI-s-mGdI-s-dGdI-s-dGmCmUmAmCmU [dI (written G) at 19,21,23, 2'-OMe 1-8,10,13-18,20,25-29, deoxy 9,11,12,19,21-24, PS 11/12,18/19,19/20,21/22,23/24, 3' inverted dT left out], dPBS Ca/Mg + BSA, RT”, the Kd is 0.03 nM. Turning to AGUCUGGGGACCCAUGGGGGACU [ARC1246], the Kd under setting [1] was determined as 34 nM. Take AGUCUGGGGACCCAUGGGGGACU [ARC1247]: under setting [1], the Kd was 192 nM. On to “ANGCCUGGGNGACCCAUNNNGNNGNNGCUN [ARC2969]”, for which, for the setting “ARC1666 chemistry + PS 1-2, 3' idT, DPBS Mg/Ca, BSA, RT”, the Kd stood at 0.09 nM. For “GCGGGCAAATTCATCCGTCCCTCCTAGTGGTTTGCCC [DNA clone SEQ 147]”, the dissociation constant (Kd) is 0.5 nM. “GGAAUCAUACACAAGACGUCAGUAAGAUUGAGUGUAUGGUU [rRfY minimer SEQ 96]”: the Kd (2'-F C and U, KD2 39.7 nM, 1xSHMCK + tRNA) came out at 0.365 nM. For the sequence “GGAAUCAUACACAAGACGUCAGUAAGAUUGAGUGUAUGGUUCC [rRfY minimer SEQ 95]”, the Kd (2'-F C and U, KD2 117.2 nM, 1xSHMCK + tRNA) was found to be 4.5 nM. With “GGAAUCAUACACAAGACGUCGCCAGAUUGAGUGUCGUGGUU [rRfY minimer SEQ 92]”, the Kd (2'-F C and U, KD2 22.0 nM, 1xSHMCK + tRNA) amounted to 0.25 nM.
